Source: article PMC5922973, “Topoisomerase VI senses and exploits both DNA crossings and bends to facilitate strand passage” (eLife, 2018)

How the values were obtained:
[1] = biological target: T1, topo VI KGRR-EEE (Methanosarcina mazei, UniProt Q8PUB7;Q8PUB8 1-369;1-621, K186E;R188E;R189E); assay: fluorescence anisotropy; Fluorescence anisotropy, 20 nM FAM-labelled DNA, topo VI 0 and 3.9-4000 nM, no nucleotide; buffer, salt, pH and temperature not given in supplied text; details: protein: recombinant; tags: N-terminal His6-TEV on Top6B, removed; chain copies: 2;2; label: 5'-FAM strand 1; blunt
T1 sequence 1: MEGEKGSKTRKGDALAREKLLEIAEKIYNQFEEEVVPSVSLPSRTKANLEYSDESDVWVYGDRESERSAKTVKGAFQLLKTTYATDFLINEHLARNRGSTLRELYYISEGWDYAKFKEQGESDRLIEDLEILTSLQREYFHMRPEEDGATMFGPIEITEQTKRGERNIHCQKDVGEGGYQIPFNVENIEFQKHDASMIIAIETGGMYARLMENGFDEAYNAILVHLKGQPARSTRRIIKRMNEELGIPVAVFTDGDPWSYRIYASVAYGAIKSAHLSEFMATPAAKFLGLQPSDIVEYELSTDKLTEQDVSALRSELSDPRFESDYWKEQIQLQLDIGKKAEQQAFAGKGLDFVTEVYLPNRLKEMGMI
T1 sequence 2: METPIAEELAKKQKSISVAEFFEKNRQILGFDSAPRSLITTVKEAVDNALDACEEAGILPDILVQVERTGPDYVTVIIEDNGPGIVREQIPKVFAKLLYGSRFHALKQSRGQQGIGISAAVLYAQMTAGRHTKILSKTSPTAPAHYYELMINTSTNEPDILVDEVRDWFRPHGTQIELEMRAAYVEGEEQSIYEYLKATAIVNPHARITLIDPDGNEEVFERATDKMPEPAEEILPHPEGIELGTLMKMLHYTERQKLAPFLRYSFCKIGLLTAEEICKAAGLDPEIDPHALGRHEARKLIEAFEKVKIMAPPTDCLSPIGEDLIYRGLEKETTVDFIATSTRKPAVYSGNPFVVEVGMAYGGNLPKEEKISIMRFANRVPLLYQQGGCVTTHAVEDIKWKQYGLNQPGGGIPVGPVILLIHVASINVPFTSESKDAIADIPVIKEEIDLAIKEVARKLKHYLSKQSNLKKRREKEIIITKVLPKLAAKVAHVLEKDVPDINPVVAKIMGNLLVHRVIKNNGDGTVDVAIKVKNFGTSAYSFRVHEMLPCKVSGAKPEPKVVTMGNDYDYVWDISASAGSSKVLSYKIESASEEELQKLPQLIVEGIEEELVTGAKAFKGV

[2] = biological target: T2, topo VI H2TH-EEE (Methanosarcina mazei, UniProt Q8PUB7;Q8PUB8 1-369;1-621, R263E;K268E;K308E); assay: fluorescence anisotropy; Hill h 1.3; FA: 20 nM probe, 50 mM K-glutamate, 20 mM HEPES-KOH pH 7.5, 10 mM MgCl2, 5% glycerol, 1 mM TCEP, 0.1 mg/mL BSA; incubated on ice, read at ambient temperature; competition with 100 nM enzyme; details: protein: recombinant; tags: N-terminal His6-TEV on Top6B, removed; chain copies: 2;2; label: 5'-FAM strand 1; blunt
T2 sequence 1: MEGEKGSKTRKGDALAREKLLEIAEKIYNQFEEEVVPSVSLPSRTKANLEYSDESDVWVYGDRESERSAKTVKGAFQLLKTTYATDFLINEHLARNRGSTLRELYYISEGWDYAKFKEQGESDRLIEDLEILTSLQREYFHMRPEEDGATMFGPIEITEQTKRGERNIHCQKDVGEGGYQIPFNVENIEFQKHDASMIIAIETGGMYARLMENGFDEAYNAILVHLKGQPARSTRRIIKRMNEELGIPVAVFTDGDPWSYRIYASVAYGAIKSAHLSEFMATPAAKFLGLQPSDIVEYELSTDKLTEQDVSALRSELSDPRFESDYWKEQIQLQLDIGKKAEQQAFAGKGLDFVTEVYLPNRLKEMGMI
T2 sequence 2: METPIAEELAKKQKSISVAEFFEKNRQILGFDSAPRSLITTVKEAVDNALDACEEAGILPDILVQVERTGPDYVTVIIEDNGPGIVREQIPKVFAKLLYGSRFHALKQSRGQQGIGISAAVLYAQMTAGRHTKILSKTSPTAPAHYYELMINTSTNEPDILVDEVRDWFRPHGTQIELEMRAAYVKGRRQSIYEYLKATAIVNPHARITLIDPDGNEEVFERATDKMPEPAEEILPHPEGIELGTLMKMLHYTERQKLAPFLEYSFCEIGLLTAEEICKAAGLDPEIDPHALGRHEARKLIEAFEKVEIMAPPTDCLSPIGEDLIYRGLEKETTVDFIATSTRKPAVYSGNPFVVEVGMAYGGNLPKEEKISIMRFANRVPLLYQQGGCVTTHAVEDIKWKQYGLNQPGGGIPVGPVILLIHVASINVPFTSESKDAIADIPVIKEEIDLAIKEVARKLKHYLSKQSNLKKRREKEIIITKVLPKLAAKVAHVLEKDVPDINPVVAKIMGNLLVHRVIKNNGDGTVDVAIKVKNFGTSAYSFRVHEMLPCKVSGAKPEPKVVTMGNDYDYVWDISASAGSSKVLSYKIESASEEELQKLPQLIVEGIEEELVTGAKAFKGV

[3] = biological target: T2, topo VI H2TH-EEE; assay: fluorescence anisotropy; Fluorescence anisotropy, 20 nM FAM-labelled DNA, topo VI 0 and 3.9-4000 nM, no nucleotide; buffer, salt, pH and temperature not given in supplied text; details: protein: recombinant, tags: N-terminal His6-TEV on Top6B, removed, chain copies: 2;2
[4] = biological target: T1, topo VI KGRR-EEE; assay: fluorescence anisotropy; 10 mM Mg2+; ambiguous, poorly defined dFAmax; FA: 20 nM probe, 50 mM K-glutamate, 20 mM HEPES-KOH pH 7.5, 10 mM MgCl2, 5% glycerol, 1 mM TCEP, 0.1 mg/mL BSA; incubated on ice, read at ambient temperature; competition with 100 nM enzyme; details: protein: recombinant; tags: N-terminal His6-TEV on Top6B, removed; chain copies: 2;2; label: 5'-FAM on S1; four-way Holliday junction, stacked-X, two GAAA-capped arms

B1: 30 bp duplex (dsDNA)
DNA 1: CAAAAAGGAAGAGTATGAGTATTCAACATC
DNA 2: GATGTTGAATACTCATACTCTTCCTTTTTG
Work on B1 yielded a Kd [1] of 82 ± 7 nM and a Kd [2] of 94 ± 5 nM.

B2: 60 bp duplex (dsDNA)
DNA 1: CGCTTCAATAATATTGAAAAAGGAAGAGTATGAGTATTCAACATTTCCGTGTCGCCCTTC
DNA 2: GAAGGGCGACACGGAAATGTTGAATACTCATACTCTTCCTTTTTCAATATTATTGAAGCG
B2 was tested, and the “apparent K (half saturation)” value ([3]; label: 5'-FAM strand 1, blunt) was 109 ± 3 nM and the Kd [1] was 119 ± 3 nM.

B3: 70 bp duplex (dsDNA)
DNA 1: CCAAATGCTTCAATAATATTGAAAAAGGAAGAGTATGAGTATTCAACATTTCCGTGTCGCCCTTATTCCC
DNA 2: GGGAATAAGGGCGACACGGAAATGTTGAATACTCATACTCTTCCTTTTTCAATATTATTGAAGCATTTGG
In the case of B3, the “apparent K (half saturation)” value ([3]; label: 5'-FAM strand 1, blunt) is reported as 103 ± 3 nM and the Kd [1] is reported as 193 ± 4 nM.

B4: 40 bp duplex (dsDNA)
DNA 1: CTATTGAAAAAGGAAGAGTATGAGTATTCAACATTTCCGC
DNA 2: GCGGAAATGTTGAATACTCATACTCTTCCTTTTTCAATAG
B4 gave a Kd [1] of 75 ± 4 nM.

B5: 16 x 20 bp stacked junction (structured_DNA)
DNA 1: CGAATACTCAGCTCAACCGAAAGGTTGAGCCTTCGCTCGAAAGAGCGAAGTACTCTTCCG
DNA 2: CGGAAGAGTATGAGTATTCG
In the case of B5, the Kd ([3]; label: 5'-FAM strand 2, four-way Holliday junction, stacked-X, two GAAA-capped arms) is reported as 90 ± 4 nM and the Kd [4] is reported as ~1460 nM.

B6: 20 bp duplex (dsDNA)
DNA 1: CGGAAGAGTATGAGTATTCG
DNA 2: CGAATACTCATACTCTTCCG
B6 was tested, and the Kd ([3]; label: 5'-FAM strand 1, blunt) was 222 ± 11 nM and the Kd [1] was 338 ± 15 nM.
